Test results published in publication PMC2134296.

Target: adenomatous polyposis coli (APC) protein (endogenous, MDCK cells) (dog (endogenous in MDCK))
Assay: co-IP

fold coimmunoprecipitated with APC protein relative to endogenous β-catenin [fold]	Substance
3	ΔN151 β-catenin (KT3-tagged, NH2-terminal 151 amino acids deleted) (from UniProt Q02248 152-781) (domain or fragment)
3	ΔN131 β-catenin (KT3-tagged, NH2-terminal 131 amino acids deleted) (from UniProt Q02248 132-781) (domain or fragment)
3	ΔN90 β-catenin (KT3-tagged, NH2-terminal 90 amino acids deleted) (from UniProt Q02248 91-781) (domain or fragment)
